Assay results as given in US20230382997A1 (published 2023).

B1: TCR26 (TCR, V domains shown)
Valpha: GENVEQHPSTLSVQEGDSAVIKCTYSDSASNYFPWYKQELGKRPQLIIDIRSNVGEKKDQRIAVTLNKTAKHFSLHITETQPEDSAVYFCAASSLREGYSTLTFGKGTMLLVSP
Vbeta: NAGVTQTPKFRVLKTGQSMTLLCAQDMNHEYMYWYRQDPGMGLRLIHYSVGEGTTAKGEVPDGYNVSRLKKQNFLLGLESAAPSQTSVYFCASSSTDLNEQFFGPGTRLTVL
B2: TCR28 (TCR, V domains shown)
Valpha: AQKITQTQPGMFVQEKEAVTLDCTYDTSDQSYGLFWYKQPSSGEMIFLIYQGSYDEQNATEGRYSLNFQKARKSANLVISASQLGDSAMYFCAMRGDPQGAQKLVFGQGTRLTINP
Vbeta: ETGVTQTPRHLVMGMTNKKSLKCEQHLGHNAMYWYKQSAKKPLELMFVYSLEERVENNSVPSRFSPECPNSSHLFLHLHTLQPEDSALYLCASSQGRGKNIQYFGAGTRLSVL
B3: TCR29 (TCR, V domains shown)
Valpha: AQKVTQAQTEISVVEKEDVTLDCVYETRDTTYYLFWYKQPPSGELVFLIRRNSFDEQNEISGRYSWNFQKSTSSFNFTITASQVVDSAVYFCALSEAWGNAGNMLTFGGGTRLMVKP
Vbeta: GAGVSQSPRYKVTKRGQDVALRCDPISGHVSLYWYRQALGQGPEFLTYFNYEAQQDKSGLPNDRFSAERPEGSISTLTIQRTEQRDSAMYRCASSPGQQNTEAFFGQGTRLTVV
B4: TCR30 (TCR, V domains shown)
Valpha: EDKVVQSPLSLVVHEGDTVTLNCSYEVTNFRSLLWYKQEKKAPTFLFMLTSSGIEKKSGRLSSILDKKELFSILNITATQTGDSAVYLCAVVPDNTDKLIFGTGTRLQVFP
Vbeta: GAGVSQSPRYKVTKRGQDVALRCDPISGHVSLYWYRQALGQGPEFLTYFNYEAQQDKSGLPNDRFSAERPEGSISTLTIQRTEQRDSAMYRCASSWGGSNTGELFFGEGSRLTVL
B5: TCR32 (TCR, V domains shown)
Valpha: ILNVEQSPQSLHVQEGDSTNFTCSFPSSNFYALHWYRWETAKSPEALFVMTLNGDEKKKGRISATLNTKEGYSYLYIKGSQPEDSATYLCAFIVHQAGTALIFGKGTTLSVSS
Vbeta: GAGVSQSPRYKVTKRGQDVALRCDPISGHVSLYWYRQALGQGPEFLTYFNYEAQQDKSGLPNDRFSAERPEGSISTLTIQRTEQRDSAMYRCASSLGLLYNEQFFGPGTRLTVL
B6: TCR33 (TCR, V domains shown)
Valpha: AQSVTQLGSHVSVSEGALVLLRCNYSSSVPPYLFWYVQYPNQGLQLLLKYTSAATLVKGINGFEAEFKKSETSFHLTKPSAHMSDAAEYFCAVSDSSYKLIFGSGTRLLVRP
Vbeta: DAGVIQSPRHEVTEMGQEVTLRCKPISGHDYLFWYRQTMMRGLELLIYFNNNVPIDDSGMPEDRFSAKMPNASFSTLKIQPSEPRDSAVYFCASQSGDTQYFGPGTRLTVL
B7: TCR346 (TCR)
alpha TRAV29DV5 TRAJ48 CDR3: CAARDISNFGNEKLTF
Vbeta: GAVVSQHPSRVICKSGTSVKIECRSLDFQATTMFWYRQFPKQSLMLMATSNEGSKATYEQGVEKDKFLINHASLTLSTLTVTSAHPEDSSFYICSARDHTSGTYEQYFGPGTRLTVT
B8: TCR2 (TCR, V domains shown)
Valpha: ILNVEQSPQSLHVQEGDSTNFTCSFPSSNFYALHWYRWETAKSPEALFVMTLNGDEKKKGRISATLNTKEGYSYLYIKGSQPEDSATYLCAFSNARLMFGDGTQLVVKP
Vbeta: DTAVSQTPKYLVTQMGNDKSIKCEQNLGHDTMYWYKQDSKKFLKIMFSYNNKELIINETVPNRFSPKSPDKAHLNLHINSLELGDSAVYFCASSQEAGTGSYNEQFFGPGTRLTVL
B9: TCR4 (TCR, V domains shown)
Valpha: AQSVAQPEDQVNVAEGNPLTVKCTYSVSGNPYLFWYVQYPNRGLQFLLKYITGDNLVKGSYGFEAEFNKSQTSFHLKKPSALVSDSALYFCAVRDAMGGSYIPTFGRGTSLIVHP
Vbeta: DGGITQSPKYLFRKEGQNVTLSCEQNLNHDAMYWYRQDPGQGLRLIYYSQIVNDFQKGDIAEGYSVSREKKESFPLTVTSAQKNPTAFYLCASSTGISEQFFGPGTRLTVL
B10: TCR54 (TCR, V domains shown)
Valpha: EDQVTQSPEALRLQEGESSSLNCSYTVSGLRGLFWYRQDPGKGPEFLFTLYSAGEEKEKERLKATLTKKESFLHITAPKPEDSATYLCAVYNQAGTALIFGKGTTLSVSS
Vbeta: EAQVTQNPRYLITVTGKKLTVTCSQNMNHEYMSWYRQDPGLGLRQIYYSMNVEVTDKGDVPEGYKVSRKEKRNFPLILESPSPNQTSLYFCASSLYSTDTQYFGPGTRLTVL
B11: TCR19 (TCR, V domains shown)
Valpha: AQKVTQAQTEISVVEKEDVTLDCVYETRDTTYYLFWYKQPPSGELVFLIRRNSFDEQNEISGRYSWNFQKSTSSFNFTITASQVVDSAVYFCALLSSGGYNKLIFGAGTRLAVHP
Vbeta: NAGVTQTPKFQVLKTGQSMTLQCAQDMNHEYMSWYRQDPGMGLRLIHYSVGAGITDQGEVPNGYNVSRSTTEDFPLRLLSAAPSQTSVYFCASSYLSPAAGFSYEQYFGPGTRLTVT
B12: TCR22 (TCR, V domains shown)
Valpha: AQSVAQPEDQVNVAEGNPLTVKCTYSVSGNPYLFWYVQYPNRGLQFLLKYITGDNLVKGSYGFEAEFNKSQTSFHLKKPSALVSDSALYFCAVRDDNAGNMLTFGGGTRLMVKP
Vbeta: DTGVSQNPRHKITKRGQNVTFRCDPISEHNRLYWYRQTLGQGPEFLTYFQNEAQLEKSRLLSDRFSAERPKGSFSTLEIQRTEQGDSAMYLCASSLANTGELFFGEGSRLTVL
B13: TCR18 (TCR, V domains shown)
Valpha: AQTVTQSQPEMSVQEAETVTLSCTYDTSESDYYLFWYKQPPSRQMILVIRQEAYKQQNATENRFSVNFQKAAKSFSLKISDSQLGDAAMYFCAYRDNFNKFYFGSGTKLNVKP
Vbeta: DSGVTQTPKHLITATGQRVTLRCSPRSGDLSVYWYQQSLDQGLQFLIQYYNGEERAKGNILERFSAQQFPDLHSELNLSSLELGDSALYFCASSGTGGAYNEQFFGPGTRLTVL
B14: TCR23 (TCR, V domains shown)
Valpha: LAKTTQPISMDSYEGQEVNITCSHNNIATNDYITWYQQFPSQGPRFIIQGYKTKVTNEVASLFIPADRKSSTLSLPRVSLSDTAVYYCLVGDIPSVDGGFKTIFGAGTRLFVKA
Vbeta: EAQVTQNPRYLITVTGKKLTVTCSQNMNHEYMSWYRQDPGLGLRQIYYSMNVEVTDKGDVPEGYKVSRKEKRNFPLILESPSPNQTSLYFCASSTSLELDQPQHFGDGTRLSIL

Target: T1, MAGE B2 peptide on HLA-A*02:01 (human)
T1 peptide: GVYDGEEHSV
Assay: multimer staining

Binding result, recognises:
B1
B2

Target: T2, CT 83 peptide on HLA-B*44:02 (human)
T2 peptide: GEMSSNSTAL
Assay: multimer staining

Binding result, recognises:
B3
B4
B5
B6

Target: T3, MAGE A3 peptide on HLA-A*01:01 (human)
T3 peptide: EVDPIGHLY
Assay: multimer staining

Binding result, recognises:
B7
B8
B9
B10

Target: T4, CT 83 peptide on HLA-A*02:01 (human)
T4 peptide: LLASSILCA
Assay: multimer staining

Binding result, recognises:
B11
B12
B13
B14
